In paper PMC2849744:

Target: ANF-RGC 669WTAPELL675 deletion mutant (UniProt P18910)
Experiment: radioligand binding

Chain of UniProt P18910 (P18910 29-1057, stated change not applied): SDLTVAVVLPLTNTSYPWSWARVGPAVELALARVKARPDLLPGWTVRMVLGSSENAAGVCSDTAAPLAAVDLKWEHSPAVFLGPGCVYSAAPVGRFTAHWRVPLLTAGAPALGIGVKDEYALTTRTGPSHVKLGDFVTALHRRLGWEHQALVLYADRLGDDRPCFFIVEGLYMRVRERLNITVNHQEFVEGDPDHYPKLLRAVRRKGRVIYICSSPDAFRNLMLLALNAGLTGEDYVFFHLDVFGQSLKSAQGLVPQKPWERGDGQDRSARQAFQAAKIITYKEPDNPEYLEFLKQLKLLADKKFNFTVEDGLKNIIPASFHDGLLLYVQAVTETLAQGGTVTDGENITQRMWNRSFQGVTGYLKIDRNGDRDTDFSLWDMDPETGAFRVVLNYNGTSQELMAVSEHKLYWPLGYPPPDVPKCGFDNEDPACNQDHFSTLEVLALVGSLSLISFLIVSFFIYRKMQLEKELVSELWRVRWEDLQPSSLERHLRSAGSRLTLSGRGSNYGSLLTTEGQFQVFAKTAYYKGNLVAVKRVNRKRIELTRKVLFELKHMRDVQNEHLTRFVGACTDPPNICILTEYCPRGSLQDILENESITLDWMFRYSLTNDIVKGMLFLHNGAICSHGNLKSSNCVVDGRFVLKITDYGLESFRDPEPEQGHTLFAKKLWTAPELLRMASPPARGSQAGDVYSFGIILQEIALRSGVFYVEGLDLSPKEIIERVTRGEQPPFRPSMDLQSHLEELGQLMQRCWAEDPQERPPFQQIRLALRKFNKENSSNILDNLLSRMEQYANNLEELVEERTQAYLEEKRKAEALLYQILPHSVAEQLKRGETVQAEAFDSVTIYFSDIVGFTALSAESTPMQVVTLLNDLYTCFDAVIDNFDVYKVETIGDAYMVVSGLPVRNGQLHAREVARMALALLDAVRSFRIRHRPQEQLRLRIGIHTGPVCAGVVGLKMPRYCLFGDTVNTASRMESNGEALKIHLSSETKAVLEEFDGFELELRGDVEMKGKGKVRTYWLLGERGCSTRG

specific binding (pmol [125I]ANF/mg protein): 10.1
Substance: atrial natriuretic factor (ANF) (peptide)
